According to the nanobody polyreactivity screen of Harvey et al. (2022):

Assay: yeast display, Sf9 membrane polyspecificity reagent, FACS + sequencing; frameworks hold sequencing errors
Summary of the method: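 Synthetic nanobody libraries on Saccharomyces cerevisiae BJ5465 were galactose-induced for 36–48 hours, stained 1 hour at 4 °C with 10% biotinylated, detergent-solubilized Sf9 membrane reagent and enriched on streptavidin microbeads. FACS then separated cells into low and high (top ~1%) gates by anti-HA (expression) and streptavidin (reagent binding) fluorescence. Genes were colony-PCR amplified, MiSeq 2 × 250 sequenced and CDR-length filtered. A clone's polyreactivity label is that of its gate of origin.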

Q: With “QVQLVESGGGLVQAGGSLRLSCAASGFTFQYYAMGWYRQEPGKERELVAAISWGGGSTYYADSVKGRFTISRDNAKNTVYLQMNSLKPEDTAVYYCNAYEYLSAGYDYWGQGTQVTVSS” as the sequence, how does the “polyreactivity (PSR sort gate)” value read?
A: low polyreactivity

Q: Which “polyreactivity (PSR sort gate)” value does the source give for “QVQLVQSGGGLVQAGGSLRLSCAASGRTFYYNAMGWYRQAPGKERELVAAITSTGGSTYYADSVKGRFTISRDNAKNTVYLQMNSLKPEDTAVYYCNTLGYTQTRGLDYWGQGTQVTVSS” here?
A: low polyreactivity

Q: For “QVQLVESGGGLVQSRGSLSLICAASGRTYRTYTMGWYRQSPGKERQFVAAIDRTGGSTYYADSVKGRFTISRDNAKNTVYLQMNSLKPEDTAVYYCAATASYIYWGKIYGYDYWGQGTQVTVSS”, which “polyreactivity (PSR sort gate)” value is on record?
A: high polyreactivity

Q: Which “polyreactivity (PSR sort gate)” value does the source give for “QVQLVESGGGLVQAGGSLSLSCAASGSTFYRYAKGWYRQAPGKERELVAAISTRGGSTYYADSVKGRFTISRDNAKNTVYLQMNSLKPEDTAVYYCAAKSGSPDDYDYWGHGTQVTVSS” here?
A: high polyreactivity

Q: Which “polyreactivity (PSR sort gate)” value does the source give for “QVQLVDSGGGLVQAGGSLRISCAASGNILIGNVMGWYRQAPGKERELVAAITSGGDTYYADSVKGRITISRDNAKNTVYLQMNSLKPEDTAVYYCAADRPGQPKYEYWGQGTQVTVSS” here?
A: low polyreactivity

Q: Which “polyreactivity (PSR sort gate)” value does the source give for “QVQLVESGGGLVQAGGSLRLSCAASGRTFVTNAMGWYRQAPGKERELVAAISSNGGSTYYADSVKGRFTISRDNAKNTVFLQMNSLKPEDTAVYYCNAEGQPLYVSWHDHRYIYGFDYWGQGTQVSVSS” here?
A: low polyreactivity

Q: With “QVQLVESGGGLVQAGGSLRLSCAASGRISQNAMGWYRQAPGKERELVAAITFSGGSTYYADSVKGRFTISRDNAKNTVYFQMNSLKPEDTAVYYCNADWPAQWHYYDSKQDDYWGQGTQVTVSS” as the sequence, how does the “polyreactivity (PSR sort gate)” value read?
A: low polyreactivity

Q: For “QVQLVESVGCLVQAGGSLRLSCAATVSIFDRYAMGWNRQPPGKESELVAAISKSGGRTYYADSVKGRFTISRDNAKNTVYLQMNSLKPEDSAVYDCAADPLLGYLSHYYWGQGTQVTVSS”, which “polyreactivity (PSR sort gate)” value is on record?
A: high polyreactivity

Q: With “QVQLVESGGGLVQAGGSLRLSCAASGFIFYSYAMGWSRQAPGKERELVAAISSTGTSTYYADSVKGRFTISRDNAKNTVYLQMNSLKPEDTAVYYCNAGYAFDPDETYDYWGQGTQVTVSS” as the sequence, how does the “polyreactivity (PSR sort gate)” value read?
A: low polyreactivity

Q: Which “polyreactivity (PSR sort gate)” value does the source give for “QFQLVESGGGLVQAGGSLRLSCAPSGFIISSNAMGGYRQAPGKERELVAAISARGGSTYYADSVKRRFTISRDNAKNTVYLQMNSLKPEDTAVYYCNTDYKTTGDYWGEGTQVTVSS” here?
A: high polyreactivity

Q: For “QVQLVESGGGLVQAGGSLRLSCAASGGTFGVNTMGWYSHAPGKERELVAAISNRGVSTYYADSVKGRFTISRDNAKNTVYLQMNSQKPEDTAVYYCASTNSYVYSITLDRYDYWGQGTQVTVSS”, which “polyreactivity (PSR sort gate)” value is on record?
A: low polyreactivity

Q: For “QVQLVESGGGLGQAGGSLRLSCAASGSIFYYYAMGWYRQAPGKERELVASITSSGGTTSYADSVKGRFTISRDNAKNTVNLQMNSLKPEDTEVYYGNAQVYRYRIGYDYWGQGTQVTVSS”, which “polyreactivity (PSR sort gate)” value is on record?
A: low polyreactivity

Q: For “QDQIVDSRGVLVQEGGSLGLSCAASGLTIYSYAMGFSRQAPRKERELVATITNGDTTTYAETVKARFTISRDNAKNNVIFQFNILKPEDTAVYYCAQHISPGYDEYDYWGQGTQVTVSS”, which “polyreactivity (PSR sort gate)” value is on record?
A: low polyreactivity

Q: Which “polyreactivity (PSR sort gate)” value does the source give for “QVQIVESGGGLVQAGGSLRISCAASGRTFVYNTMGWSRQAPGKERELVAAITDRGTSTFYADSVKGRFTISRDNAKNTVDLQMNSLKPEDTAVYYCAKDWLVTEFDYWAQGTQVTVSS” here?
A: low polyreactivity

Q: Which “polyreactivity (PSR sort gate)” value does the source give for “QVQLVESWGGLVQAGCSLRLSCAASGRTFRSYAMGWYRQATGKERELVAAISRNGGRTYYADSVKGRFTMSRDNAKYTVYSQMNSLKPEDTAVYYCAAVGDFDVYYWGQATQVTVSS” here?
A: high polyreactivity

Q: With “QVHLVESGGGLVQAGCSLRLSCAASGSTISRYAMGWNRQAPGKETELVATITGGGRTYYADSVKGRFTISRDNAKNTVYLQMNSLKPEDTAVYYCAVRGYHQYKYGYWGQGTQVTVSS” as the sequence, how does the “polyreactivity (PSR sort gate)” value read?
A: high polyreactivity

Q: With “QVQLVESGGGLVQAGGSLRLSCAASGSTFSDNAMGWYRQAPGKERELVAAINETGGSTYYADSVKGRFTISRDNAKNTVYLQMNSLKPEDTAVYYCNADIDPYGATYAIEYDYWGQGTQVTVSS” as the sequence, how does the “polyreactivity (PSR sort gate)” value read?
A: low polyreactivity

Q: For “QVQLVESGGGLVQAGGSLRLSSAASGSTFGPYPMGWYRPAPGKERELVATISSGGSTYYADSVKGRFTISRDNAKNTVYLQMNSLKPEDTAVYYCAARYWSIYDYWGQGTQVTVSS”, which “polyreactivity (PSR sort gate)” value is on record?
A: low polyreactivity

Q: With “QVQLVESGGGLVQAGGSLRLSCAASGRTLYLNAMRWNRQPQRKERELVAISSGGSTYYADSVKGRFTISRDNAKNTVYLQMNSLKPEDTAVYYCNADEHYHFGYVFWYAYDYWGQGTQVTVSS” as the sequence, how does the “polyreactivity (PSR sort gate)” value read?
A: low polyreactivity

Q: With “QVQLVESGGGLVQAGGSLRLSCAASGSTFTGYAMGWYRQAPGKEMELVAAISISGGRTVYADSVKGRFTISRDNAKNTVYLQMNSLKREDTAVYYCNARYTRYTLRYYYWGQGTQVTVSS” as the sequence, how does the “polyreactivity (PSR sort gate)” value read?
A: high polyreactivity

Q: For “QVQLVESGGGKLQAGGSLRLSCAASGIILYVYAMGWYRQAPGKARELVAAITWSGGSTYYADSEKGRFTISRDNAKNTVYLQMNSLKPEDTAVYYCAVDVHTSADASLPQEYDYWGPGTQVTVSS”, which “polyreactivity (PSR sort gate)” value is on record?
A: low polyreactivity

Q: For “QVQLVESGGGLVQAGGSLRLSCAASGSIFGDYAMGWYRQAPGKERELVATITWIGGSTYYADSVKGRFTISRDNAKNTVYLQMNSLKPEDTAVYYCAATKYVDVKYYYWGQGTQVTVSS”, which “polyreactivity (PSR sort gate)” value is on record?
A: low polyreactivity

Q: With “QVQLVESGGGLVQAGGSLRLSSAASGSIFVLYAMGWYRQAPGKERELVAAIDVGGGSTYYADSVKGRFTISRDNAKNTVYLQMNSLKPEDTAVYYCAAELYYTYRWYDYWGQGTQVTVSS” as the sequence, how does the “polyreactivity (PSR sort gate)” value read?
A: high polyreactivity

Q: Which “polyreactivity (PSR sort gate)” value does the source give for “QGQLVESGGGLVQAGGSLRLSCAASGRTFGYYAMRWYRQARGKERELVAVITRSGGTTYYADSVKGRFTISRDNAKNTVYLQMKSLKPEDTAVYYCHPAYYTGMYWGQGTQVTVSS” here?
A: high polyreactivity

Q: With “QVQLVESGGGLVQAGGSLRLSCAASGRTLRRYAMGWYRQAPGKERELVAGISRNGGSTYYADSVKGRFTISRDNAKNTVYLQMNSLKPEDTAVYYCNADDKAQSDYWGQGTQVTVSS” as the sequence, how does the “polyreactivity (PSR sort gate)” value read?
A: high polyreactivity

Q: Which “polyreactivity (PSR sort gate)” value does the source give for “QVQLVESGGGLFQAGGSLRLSCAASGIIFSSNAMGWSRQAPGKERELVAAISSSGSRTYYAASVKGRFTISRDNAKNTVYFQMNSLKPEDTAVYYCAARTISSLNHHGYWGQGTQVTVSS” here?
A: high polyreactivity

Q: Which “polyreactivity (PSR sort gate)” value does the source give for “QVQLVESGGGLVQAGGSLRLSCAASGGTFYRYAMGWYRQAPGKERELVAAITSGSSTYYADSVKGRFTISRDNAKNTVYLQMNSLKPEDTAVYYCAAARYSRLSRTRPGKYGYWGQGTQVTVSS” here?
A: low polyreactivity

Q: For “QVQLVESGGGLVQAGGSLRLSCAASGSIFYYNAMGWYRQAPGKERELVAAINSNGGSTYYADSVKGRFTISRDNAKNSVYFQMNSLKPEDTAVYYCNARYPGRTQGRYYYWGHGTQVTVSS”, which “polyreactivity (PSR sort gate)” value is on record?
A: low polyreactivity

Q: Which “polyreactivity (PSR sort gate)” value does the source give for “QVQLVESGGGLVQAGGSLRLSCAASGRTFSGNTMGWYRQAPGKERELVAAITGRGGSTYYADSVKGRFTISRDNANNTVYLQMNSLKPEDTAVYYCAALRYTFAGRFDYWGQGTQVTVSS” here?
A: high polyreactivity

Q: With “QDQLVESGGGLVQAGGSIRLSCAASGSILRSNALGWYRQAHVQERELVAAITFNGGSTYADSVKGRFTISRDNAKNNVYLQMNSLKPVDTSVSYCATGDGPCLFDYWGQGTQVTVSS” as the sequence, how does the “polyreactivity (PSR sort gate)” value read?
A: low polyreactivity

Q: For “QVQLVESGGGLVQAGGSLRLSCAASGRTFYFYTMGWYRQAPGIERELVATIRWSAGSTYSADSVKGRFTISRDNAKNTVYLQMTSLKPEDTAVYYCNADPYVYSSWQYGYWGQGTQVTVSS”, which “polyreactivity (PSR sort gate)” value is on record?
A: high polyreactivity

Q: Which “polyreactivity (PSR sort gate)” value does the source give for “QVQLGESGGGLVQAGGSLGLSCAASGLTFIVYAMGWYRQAPGKERELVADITWSGGSTYYADSVKGRFTISRDNAKNTVYLQMNSLKPEDTAVYYCNRQSGNIMDYWGQGTQVTVSS” here?
A: low polyreactivity

Q: For “QVQLVESGGGLVQAGGSLRLSCAASGRTFYWNAMGWYRQAPGKEREFVAAITNTAGSTYYADSVKGRFTISRDNAKNTVYLQMNSLNPEDTAVYYCAKSGNGGYRTYLRDYWGQGTQVTVSS”, which “polyreactivity (PSR sort gate)” value is on record?
A: low polyreactivity

Q: Which “polyreactivity (PSR sort gate)” value does the source give for “QVQLVESGGGLVQAGGSLRLSCAASGRILNTYTMGWYRQAPGKERELVAAITSRGGSTYYADSVKGRFTISRDNAKNTVYLQMNSLKPEDTAVYYCAAGYPYDYWGQGTQVTVSS” here?
A: high polyreactivity

Q: With “QVQLVESGGGLVQAGGSLRLSCAASGFIFRRYTMGWSRQAHGKERELVAAITSSGGTNYADSVKGRFTISRDNAKNTVYLQMNSLKPEDTAVYFCAAESVSSVWYDYLGQGTQVTVSS” as the sequence, how does the “polyreactivity (PSR sort gate)” value read?
A: high polyreactivity

Q: With “QVQLVESGGCLVQAGGSLRLSCAASGITFRYYPMGWYRQAPGKERELVATISTNGGTTYYADSVKGRFTISRDNAKNTVYLQMNSLKPEDTAVYYCNRKIYVSSARYPSEYGYWGQGTQVTVSS” as the sequence, how does the “polyreactivity (PSR sort gate)” value read?
A: high polyreactivity

Q: For “QVQLVESGGGLVQAGGSLRLSCAASGRTFPYYAMGWYRQAPGKERELVAAITSGGSTYYADSVKGRFTISRDNAKNTVYLQMNSLKPEDTAVYYCNALLGYYRWRRPVDYSYGSWGQGTQVTVSS”, which “polyreactivity (PSR sort gate)” value is on record?
A: high polyreactivity

Q: For “QVQLVESGGGLVQAGGSLRLSCADSGSTFFRYAMGWYRQAPGKERELVAAISKSGASTYYADSVKGRFTISRDNAKNTVYLQMNSLKPEDTAVYYCNADVKKSSAREWQYGYDYWGQGTQVTVSS”, which “polyreactivity (PSR sort gate)” value is on record?
A: low polyreactivity

Q: For “QVQLVESGGGLVQAGGSLRLSCAASGSIFYVYAMGWYRQAPGKEREFVASIRTSGSSTYADSVKGRFTISRDNAKNTVYLQMNSLKPEDTAVYYCAAGSITVFWKRTGYRWRGYDYWGQGTQVTVSS”, which “polyreactivity (PSR sort gate)” value is on record?
A: low polyreactivity

Q: For “QVQLVEAGGGLVQAGGSLRLSCAASGRIFYYYAMGWYSQAPGKEREFVAAIRISGGSKNYADSVKGRFTISRDNAKNNVYLQMNSLKPEETAVYYSAARSKYSGIRRAYDYWGQGTQVTVSS”, which “polyreactivity (PSR sort gate)” value is on record?
A: high polyreactivity

Q: Which “polyreactivity (PSR sort gate)” value does the source give for “QVQLVESGGGLVQAGGSLRLSCAASGSIRSYAMGWYRQAPGKERELVAAITRSGGSTYYADSVKGRFTISRDNAMNTVYLQMNSLKPEDTAVYYCAARYTYSYPLFGSWGQGTQVTVSS” here?
A: high polyreactivity

Q: For “QVQLQESRGGQVQEGGSLRLSCAASGNISPPADMGWYRQAPGKERELVASIGTGGTTNYADSVKGRFTISRDNAKNTVYLQMKSLKPDDTAVYYCAAVRFEYNPYDYWGQGTQVTVSS”, which “polyreactivity (PSR sort gate)” value is on record?
A: low polyreactivity

Q: With “QVQLVESGGGLVQEGGSLRLSCAASGLIFSEYAMGWSRQAPGKERELVAAIRSDGGSTYYADSVKGRFTISRDNAKNSVYLQMNSLKPEDTAVYYCNAPYRRSAKFRRYGYDYLGQGTQVTVSS” as the sequence, how does the “polyreactivity (PSR sort gate)” value read?
A: high polyreactivity
